Laboratory results as given in patent publication US20090162848A1, “Noxin, a novel stress-induced gene involved in cell cycle and apoptosis” (COLD SPRING HARBOR LABORATORY, priority 2007, published 2009).

Experiments:
[1] = system: MEFs from p53-deficient mice; test: DNA synthesis in p53-deficient MEFs expressing noxin; type: cell-based, mouse
Method: Noxin action was also analyzed in p53-deficient MEFs.

NIH3T3 cells [2] = test: Cell cycle distribution of pFLAG-noxin transfected cells by flow cytometry; type: cell-based, mouse; settings: anti-FLAG staining, DNA content
Method: After transfection with pFLAG-noxin or pcDNA3 vector, cell division was arrested with three different treatments (nocodazole, aphidicolin, or low concentration of serum). Cells were stained with anti-FLAG antibody and FITC-conjugated anti-mouse IgG antibody after permeabilization. Cell cycle distributions of untransfected and transfected cells were analyzed by DAPI staining and flow cytometry.

p53 = p53 levels in transfected cells by immunocytochemistry and flow cytometry; type: cell-based
Method: The cells were labeled with […] (BrdU) (10 μM) and incubating for the time periods indicated. The cells were collected from plates by trypsin digestion were suspended in saline and fixed with 70% ethanol. After washing with PBS containing 0.05% BSA, 1×10^6 cells were incubated with FITC-conjugated anti-BrdU antibody (Pharmingen, 1:500) for 1 hr, suspended in PBS-BSA with 5 μg/ml propidium iodide (PI) and 20 μg/ml RNase A, and incubated further for 30 min at room temperature. For the bivariate cell cycle analysis, cells were analyzed using LSRII flow cytometer ([…]). […] Cells were analyzed for PE, FITC, and GFP fluorescence by flow cytometry.
Cells were transfected with pFLAG-noxin- or GFP-expressing plasmids and the levels of p53 were determined using immunocytochemistry and flow cytometry. […] 13a-c: which were stained with anti-FLAG and anti-p53 primary antibodies and ALEXA Fluor 596- and 488-conjugated secondary antibodies, respectively. […] 14a-d: Cells transfected with pFLAG-noxin (upper panels) and pEGFP (taken as control; lower panels) that were stained with anti-FLAG and anti-p53 primary antibodies, and PE- and FITC-conjugated secondary antibodies. Then Noxin-FLAG- or EGFP-negative (left panels) and positive (right panels) cells were analyzed for the amount of p53 protein.

NIH3T3 cells [3] = test: BrdU incorporation (DNA synthesis) in transfected versus untransfected NIH3T3 cells; type: cell-based, mouse; settings: BrdU labeling for 24 h
Method: In addition, constructs coding for cyan fluorescent protein with a nuclear localization signal (CFP-nuc), yellow fluorescent protein fused to actin (YFP-actin), or vector construct alone were used as controls. Cells were then labeled with BrdU for 24 h and analyzed cells in situ by immunocytochemistry for BrdU and noxin (or other listed proteins) (FIG. 11A-C). In the figures, signals from anti-FLAG antibodies are seen in red; anti-BrdU antibodies are green; Hoechst 33342 (blue) was used for nuclear counter-staining. […] Recombinant protein was detected on a Western blot using the anti-FLAG antibody.

B1: noxin: noxin tagged with the FLAG epitope at its N-terminus, expressed from plasmid pFLAG-noxin (mouse, SEQ ID NO: 2) (protein)
chain: MNKRRKFLFASVLAVQNSNFIYPSCQRCFSKIILESKRFTCPKCGSSGDTGSTNYRYKLSLKVAESSKLFFITVFGSCLDTFFGLTATGLHRYLEDSIKNLETLDSGRTQSLLTTAVEKCFVGQSFVFGVTNFGDVCGHDSDSSNFQQPCCKHRGEVRTLVASQIILPSPHVKGFTVIAYLHPLLHKKPHCGSQEHSSQSLTSDDSDSDLNNIQGSGNTSWFSESSVGEDFFRYWEPSLELTSSDSQVTSSDDFPASKQIMASGTPNQNRHCISVSEVTSSKNCHDSLQSLWSLHSCMDKNNTTGKLGEELGLPSPVCNSCHESRLSDSHFFPSQMQEPFEEHNLECYSKAEKNDYSQYDIACYQHHEVNTTPILQQRSSAFSLSSLKPEETANPSQNSDSLIWDDLPLSESLNKFLAVVESEVAVTEIDAKNRKQGMDKSIDKCHKNYSRLSLTPWRNTRALNTSCFSLRSSQAMMKDSGKEALFSNCKSNSSPHIQKESKADKTEAAVSIAGSRSDISEDFLPDTCSSALFTSSKDREAFITQKRTSGVLQQRNEISCRPSTSISDCSDLRSRYFTGCGQKLHSGTKGKLAIQNCSKKYSDASDLHKLENKHRWPKKEDDNFTICRKLTYPLETLCSSPESINTSKEMPYRPSNNNLTPSSSGDHEGSYNASAGLFDYIAKDKDIGTEITKIPQDNLLPLEVPCTENYPINENRGQPSQKPSLQSISPSRYSRPRSQSDSECDFEESQDFVPCSQSTPVAGFHQRIHGLNGASKILPSIYSNHNANYKNRKNSPLTGQYQATSACSKNVKAFRQKPESPFVSSLTQANVFNHCPAAESLGNDVDEWVPPTTKKVFISDILGFRVMGLRKCLDLHYSPDPKELPRKKLIKVTHKTNI
modifications: left off: small tags and cut ends
suppression of DNA synthesis [1]: effective
cell cycle phase of cells expressing the transfected gene (NIH3T3 cells [2]): arrested in G1 or early S phase
p53 levels in cells that received the gene (p53): increased
fraction of BrdU-positive cells in transfected cells, % of the value for the untransfected cells (NIH3T3 cells [3]): 24%
